Experimental data published in publication PMC8395052.

Target: T1, human estrogen receptor-alpha (ERα) fused at its N-terminus with NanoLuc luciferase (Nluc-ERα) or HaloTag (HT-ERα) (human), P03372
T1 chain: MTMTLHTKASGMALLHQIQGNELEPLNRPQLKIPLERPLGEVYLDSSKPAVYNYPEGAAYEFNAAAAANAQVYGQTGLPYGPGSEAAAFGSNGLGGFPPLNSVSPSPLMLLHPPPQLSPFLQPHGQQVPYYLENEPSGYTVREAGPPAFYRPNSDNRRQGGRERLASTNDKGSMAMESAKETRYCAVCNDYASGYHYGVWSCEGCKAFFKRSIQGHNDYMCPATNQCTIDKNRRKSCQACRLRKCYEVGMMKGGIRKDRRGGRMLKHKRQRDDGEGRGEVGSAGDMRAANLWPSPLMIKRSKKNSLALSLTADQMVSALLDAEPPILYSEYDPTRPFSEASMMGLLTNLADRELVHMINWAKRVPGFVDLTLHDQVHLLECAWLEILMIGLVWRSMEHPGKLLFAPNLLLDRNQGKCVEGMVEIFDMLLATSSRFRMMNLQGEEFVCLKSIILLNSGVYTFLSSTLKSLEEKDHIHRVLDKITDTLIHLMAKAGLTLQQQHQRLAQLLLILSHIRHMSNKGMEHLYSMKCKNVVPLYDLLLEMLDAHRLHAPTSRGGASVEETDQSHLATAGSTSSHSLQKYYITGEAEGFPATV
Test: FRET or BRET; NanoBRET in living HEK293 cells co-transfected with Nluc-ERα (donor) and HT-ERα (acceptor), 1:1; HaloTag NanoBRET 618 ligand; cells treated 24 h with E2, 17α-estradiol, diethylhexyl phthalate, bisphenol A or 4-nonylphenol; fold induction of the corrected BRET unit (618 nm/460 nm) over the vehicle control (0.1% DMSO)
Details: remark: other sources report otherwise

fold induction of the BRET signal over vehicle control, with 4-nonylphenol: 2.3 fold
fold induction of the BRET signal over vehicle control, with 17α-estradiol 10^-8 M: 2.7 fold
fold induction of the BRET signal over vehicle control, with E2 10^-9 M: 2.7 fold
fold induction of the BRET signal over vehicle control, with bisphenol A 10^-5 M: 5.7 fold
fold induction of the BRET signal over vehicle control, with diethylhexyl phthalate: 2.3 fold
B1: human estrogen receptor-alpha (ERα) fused at its N-terminus with NanoLuc luciferase (Nluc-ERα) or HaloTag (HT-ERα), P03372 1-595 (receptor)
chain: MTMTLHTKASGMALLHQIQGNELEPLNRPQLKIPLERPLGEVYLDSSKPAVYNYPEGAAYEFNAAAAANAQVYGQTGLPYGPGSEAAAFGSNGLGGFPPLNSVSPSPLMLLHPPPQLSPFLQPHGQQVPYYLENEPSGYTVREAGPPAFYRPNSDNRRQGGRERLASTNDKGSMAMESAKETRYCAVCNDYASGYHYGVWSCEGCKAFFKRSIQGHNDYMCPATNQCTIDKNRRKSCQACRLRKCYEVGMMKGGIRKDRRGGRMLKHKRQRDDGEGRGEVGSAGDMRAANLWPSPLMIKRSKKNSLALSLTADQMVSALLDAEPPILYSEYDPTRPFSEASMMGLLTNLADRELVHMINWAKRVPGFVDLTLHDQVHLLECAWLEILMIGLVWRSMEHPGKLLFAPNLLLDRNQGKCVEGMVEIFDMLLATSSRFRMMNLQGEEFVCLKSIILLNSGVYTFLSSTLKSLEEKDHIHRVLDKITDTLIHLMAKAGLTLQQQHQRLAQLLLILSHIRHMSNKGMEHLYSMKCKNVVPLYDLLLEMLDAHRLHAPTSRGGASVEETDQSHLATAGSTSSHSLQKYYITGEAEGFPATV
modifications: here or on the partner: HaloTag NanoBRET 618 ligand on the HaloTag of the acceptor copy; HaloTag NanoBRET 618 ligand on the HaloTag of the acceptor copy
